Test: label from the status in PepcDB records

Sequence | protein production
MKTLTTPAPTKSASFREGVFDSLPIVIGYMPVAFAFGMNAVKLGFTPLEGIFLSCIIYAGASQFVITALLSAGMSIWVAALTVMAMDIRHVLYGPALRHRIVQQLPTRKTALWAFGLTDEVFAAAATRLAKDNRRWSENWMIGVSLLAWLSWVLGTVIGAVFGNGPLDNYPAVEAALSFMLPALFLSFLLASFKRKQSLVVACALGGALLGLLLSSIPAAILLGILSGCLASLVNSATPQVNA | failed
MKTLVHLSDLHFGKTESQLVDAIAAEVRAVDSDLLVVSGDLTQRARKDEFLQARAFLDSLPGPRIVVPGNHDVPLWNVFARAMTPLSRYRRYIEADTDPFYADSEVAVVGINTARSLTIKDGRINVRQLKAATEKFAHMSDDITRIVVTHHPFEGRDLESDDGIVGRADLAMHAFSRSGVDIILSGHQHLHRAGSSARRYLIDGYAALLIQAGTAVSSRLRRAANSFNIIRIEHPRISVECRAWQPSQSGFETSASYSFRQGPGGWKPT | failed
MKTPTFGKREETLTYQTRYAAYIIVSKPENNTMVLVQAPNGAYFLPGGEIEGTETKEEAIHREVLEELGISVEIGCYLGEADEYFYSNHRQTAYYNPGYFYVANTWRQLSEPLERTNTLHWVAPEEAVRLLKRGSHRWAVEKWLAAAS | not failed
MKTRCGCKKIASYTVVKLILNRLDVAMNSTIRRWFASAGAMRRVFSTFAPYLGAGIKVTHIADDFSSATVEMRQHWYNTNYVGTHFGGSLYSMVDPMYMLLLMRSLGNDYIVWDKSASIDFIRPGKGVVKAHFELTDARLDEIREATADGDKYLPEWYIDIVDEAGTVVSRVHKVLYVRRKPAE | failed
MKTRMKITIAFVAVMVLSFTGYNVYKTQKAIQLSDVAMANVEALADGEGTNAGYCYLEDTWSTKRGYKYFCDSKTDKNTIYPCPSSMESGWYDDNKQDRCTK | failed
MKTTALRLYGKRDLRLETFDLPEMQEDEILATVVTDSLCLSSWKEANLGENHKKVPDDVATNPIIIGHEFCGDILAVGKKWQHKFQPGQRYVIQANLQLPDRPDCPGYSFPWVGGEATHVVIPNEVMEQDCLLAYDGETYFEGSLVEPLSCVIGAFNANYHLQEGSYNHTMGIRPQGRMLILGGTGPMGLLAIDYALHGPVNPSQLVITDTDNDKLSYARKHYPSEPQTLIHYLNAADAAFDTLMALSGGHGFDDIFVFVPNEGLVTLASSLLATDGCLNFFAGPQDKHFSAPINFYDVHYAFTHYVGTSGGNTDDMRAAVKLIEEKKVQAAKVVTHILGLNAAGETTLELPAVGGGKKLVYTGKYLPLTSLTQIQDQALAAILARHQGIWSGEAEQYLLTHAEAISHD | failed
MKTTALRLYGKRDLRLETFDLPEMQEDEILATVVTDSLCLSSWKEANLGENHKKVPDDVTTNPIIIGHEFCGDILAVGKKWQHKFQPGQRYVIQANLQLPDRPDCPGYSFPWVDGEATHVVIPNEVMEQYCLLAYDGETYFEGSLVEPLSCVIGAFNANYHLQEGSYNHTMGIRPQGHTLILGGTGPMGLLAIDYALHGPVNPSLLVITDTDNDKLSYARKHYPSEPQTLIHYLNATDAAFDTLMALSGGHGFDDIFVFVPNEGLVTLASSLLATDGCLNFFAGPQDKHFSAPINFYDVHYAFTHYVGTSGGNTDDMRAAVKLIEEKKVQAAKVVTHILGLNAAGETTLELPAVGGGKKLVYTGKYLPLTSLTQIQDQALAAILARHQGIWSGEVEQYLLAHAEAISHDLEHHHHHH | failed
MKTTLIISTYNRPEALSVCLDSVRFQTVMPDEVIVGDDGSTSETKDLIESFKKDFPVPLIHLWQEDKGFRLAMMRNKSVAAATGDYIIEIDGDIFLHNKFVEDHKRLAKPGHYLRGTRVNLGQKLTEEICKSKVNRRIYPWTIGIQNRAETAIHSTPVSNFFADRYKKNVSSGLGCNMSFWRSDFLAINGYDEFFEGWGKEDDDLTHRLQRKGCKKRSLRFAGIVYHLWHGHESMESDQKNAEYFRKNNEKNIVYCENGVSKYLKQELEHHHHHH | not failed
MKTTYNRWWKKKVWFGRKDMSYKVIVDSCGEFTPEMKADGGFEHVALGIQIEDTQWTDDDSLKQEELLLKIAESTSCAKTSCPSPERYMESYHCDAERIYVVTLSAELSGSYNSAVLGKNLYEEEYGEKQIHVFNSRSASVGETLIALKVQQCEKAGMTFEEVVESVECYIEEQHTYFVLENLDTLRKNGRLTGIKSLVAGALNIKPIMGSTPQGTICQKEKARGMKKALVKMADCVAADVVNAGDKILAIAHCNCEERAKEVQRLLKERFAVKSSFIVDTSGISTVYANDGGIIVVV | not failed
MKTYTLIATAPMGIEAIVAKEVRDLGYDCTVDNGKVVFEGDALAICRANLWLRTADRVKVQAAEFIAKTFDELFEKTKAIDWSAYLPEHASFPVTGKSVKSVLASVPDCQRIVKKAIAEKLKSEYQTQGEWLEETGPEYKIEVSLLKDKAVITLDSSGAGLHKRGYRTGQGEAPLKETLAAALILLTNWTPDRPFVDPFCGSGTIPIEAALIGQNIAPGFNRDFASERWEWIGKEVWDQARLEVEEKANYDQPLSISGYDLDHRMIEIAKANAEEAGLADFIEFKQMQVKDFRTKEEYGVIVGNPPYGERLGEKKAVEAMYKDMGKAFAELDTWSVYMLTSNERFEECYGKKATKKRKLFNGFIKTDYYQYWGKRPPKPNKEK | not failed
MKVALGGTFEPLHEGHKKLIDVAIKLGGRDITIGVTSDRMARARIRSVLPFAIRAENVKRYVMRKYGFEPEIVKITNPYGKTLDVDFEYLVVSPETYEMALKINQKREELGKRKITIVKVDWMMAEDGKPISSTRIKRGEID | not failed
MKVAVLVGGVGRRIGMEKTEVMLCGKKLIEWVLEKYSPFQTVFVCRDEKQAEKLSSRYEAEFIWDLHKGVGSIAGIHAALRHFGSCVVAAIDMPFVKPEVLEHLYKEGEKAGCDALIPKHDYPEPLLAYYAESAADELERAILQGIRKILVPLERLNVVYYPVEKLRKFDKELISFFNINTPDDLKRAEEICSKMSTEGLLEHHHHHH | not failed
MKVCLQCENFFSSADWACPSCGYQPERLNGIEAHASEFAHGGGGFKPEYFSELSRLEAGNFWFRARNELILWALRTYKPNAGAFLEVGCGTGFVLSGIARACPEIALNGSEIFLAGLFHAAKRVPSTHFMQMDARRVPFVEEFDAIGAFDVLEHIEEDETVLAQLHNAIKPSGVLLLTVPQHPRLWSASDDYACHVRRYTRVEIEQKVLTAGFELLRSSSFVTSLLPVMMLSRVLQKRKTKDFDPAGELKINAALNKVFYGLMMLELAGIRLGMNYPVGGSRLVVAKKQSALEHHHHHH | not failed
MKVFIAGGRGRVGSLLADNLEAKGIEVVSGGLEDGIDVISGKGLTEALAGVDTIVNVLNTPRFDAEGAISFFEGAINNLTAEGERAGVRHHIVLSIVGVGQGDASEVGYYLGKVAQEKAVRSASIPATIIRATQFQSYIPVLIDQHTVDGKVIAPRSFVQPVELDEVIELLAEAATTLEPGSEVEIAGPDRFYHDDLFRATLADRGDDREVVTVDAEGAPDVMVPRGAYRTGTVRYPITGIPTV | failed
MKVGAVVITMGNRPEELRALLDSVAKQDGDPVQVVVVGNGSPVPEVPEGVRTVELPENLGIPGGRNVGIEAFGPGGSDVDILLFLDDDGLLARTDTAELCREAFAADDELGIISFRIADPDTGETQRRHVPRLRASDPMRSSRVTTFLGGANAVRTRVLTQVGGLPDAFFYAHEETDLAWRALDAGWMIDYRSDMVLNHPTTAPSRHAVYHRMVARNRVWLARRNLPALLVPVYLGVWMALTLLRRPSRPALKAWFGGFREGWATPCGPRRPMRWRTVWRLTRLGRPPVI | failed
MKVIMTTKVDKASMNIMNKLIENFGFKETEYVFDGNPVYKRGDVLILTTNDEMIYYDYLDREIENQLGFKPEIIAFASRHSSKQKLPALTTHVTGNWGKAMYGGKDESFAVAIPSAMKLSLLKMSELNDLGWTVCYEATHHGPTELEVPSFFIEIGSSEEEWINDRAGEIIAETIIYVLDNYEKGRSKFKVALGIGGGHYAPKQTKRALEGDLAFGHILPKYAQPVSRDVMIKALNRFGEKVEAIYVDWKGSRGETRQLAKSLAQELGLEFIKD | not failed
MKVLLDTNIIVDFLSKRPVFFNEAEKIISKCRDGEIIGIVAVHTVSTLFYLLKKYVSPETLRDIFYNLFEIIEIGRADKNSVLEALKNTEFTDFEDGLQYQCALEEFVDCIITRNKKDFFSSKIPVYTPSEFLKSLLEHHHHHH | failed
MKVLREDEESEIVKQFLDDNNSVIVDFDPIDLYEAVHPPFSIRLSIDRISAMPLSILRRRAAAFVSDPQTLSKLLNNDIAGKFDFIYDNSNRSWQKYYPFSYYRSINAADLYENIKAYTVLDVREPFELIFGSIANSINIPISELREKWKILERDKKYAVICAHGNRSAAAVEFLSQLGLNIVDVEGGIQSWIEEGYPVVYGRESAED | failed
MKVLVFICGEGLGHTSRGIALGRELLAAGHEVYLGAYGYSKEFIERKGYKTVEIPPEIKLVGESGSLNLKRSIISTLKGGNVFGIFKVLSLLKEKKPDIVVSDSYFTGVVASKIRGIPVYLIVNQSNMETFFKNGGIALRTMGGIIKQFYSCIFRRVDRIVIPDFPMPYTVCRLNLAFEEKVSKNLFFSGPLTLKKFDDVKAEVLQKPHVLSLIGGFGYREPIFRKVIEVAKLDKSINYTLLSGPSLNPDVFSNLPENVTIKRFINDQFPYLKASDLVIAPGGHSTIMEALTFGVPVLSFPDINHSEQESNATVVDLAGYGKRLDYSASPEEILRSIKELLKDEKIHQKVEIMKKLSKDLNATATFKELLESNSKRSQKV | failed
MKVNETGVEELNPYPDRPGERDCQFYLRTGLCGYGSSCRYNHPTHLPQDVAYYKEELPERIGQPDCEYFLKTGACKYGPTCKYHHPKDRNGAQPVMFNVIGLPMRLGEKPCPYYLRTGTCRFGVACKFHHPQPDNGHSTAYGMSSFPAADLRYASGLTMMSTYGTLPRPQVPQSYVPILVSPSQGFLPPQGWAPYMAASNSMYNVKNQPYYSGSSASMAMAVALNRGLSESSDQPECRFFMNTGTCKYGDDCKYSHPGVRISQPPPSLINPFVLPARPGQPACGNFRSYGFCKFGPNCKFDHPMLPYPGLTMATSLPTPFASPVTTHQRISPTPNRSDSKSLSNGKPDVKKESSETEKPDNGEVQDLSEDASSP | failed
MKVNKFITIYKDIAQQIEGGRWKAEEILPSEHELTAQYGTSRETVRKALHMLAQNGYIQKIRGKGSVVLNREKMQFPVSGLVSFKELAQTLGKETKTTVHKFGLEPPSELIQKQLRANLDDDIWEVIRSRKIDGEHVILDKDYFFRKHVPHLTKEICENSIYEYIEGELGLSISYAQKEIVAEPCTDEDRELLDLRGYDHMVVVRNYVFLEDTSLFQYTESRHRLDKFRFVDFARRGK | not failed
MKVNPDFFPLTQMAQRFVDQLAQCRRLGLTVLEASEHHVLIELPYSTELIGYPDTGVIHGGVITTLMDTACGSAVVSAIFQKYQSLEISPTLDLRVDYMKPAQPHKSVYGFAECYKLSSNIAFTRAIAYQDSIDDPIAHAVGSFMRISPEMVGDAFRQALIGLEHHHHHH | not failed
MKVRNVIIGFMVASLTGCSMGHRDPVEIKQTLDKSINENGGLLLADLPASVQADLMPELNTPHVEVEEPVKRFRVRANGVGAKAFFTSLVKGTEYSVVIHPQVSGRITMNLSDVTMDDVLSSVEDLYGYDIVKAGKVLQVYPATIRTETIPVDYLQLTRKGRSLTTITTGSITNSDNNSSNNNNSSSKSNNNSSSSSSSATGGTEIETTSESDFWKELETAISVMIGNGADRSVVVSPQASVVTITASPDELRKVKQFLGTSHKRLQRQVILEAKLLEVTLSDGYQQGINWSNLTASLGGTDVVFGQTSGLVQGALPGMDTIGTLLGGQTNITVSDGNFQAVLSFMDTQGDLNVLSSPRVTAANNQKAVIKVGRDEYYVTEVSSVTGSGDNSNASPEVTLTPFFSGISLDVTPQIDDKGNVMLHVHPSVIDVENEVKEIDLGDVGGVLKLPLAKSSIRESDSVIRAKSGDVVVIGGLMKSQTVDQVSKVPLLGDVPALGHLFRNVSQLTQKTELVILLKPTVVGVDTWQEELERSRDLLQEWFPDELEHHHHHH | not failed
